# From doi:10.1101/2023.01.07.523072
# pKd: −log10 of the molar value.
# Target: RPN13 pru domain (Arabidopsis thaliana) (UniProt O48726)
# Assay: ITC
# Sequence of UniProt O48726 (O48726 9-121): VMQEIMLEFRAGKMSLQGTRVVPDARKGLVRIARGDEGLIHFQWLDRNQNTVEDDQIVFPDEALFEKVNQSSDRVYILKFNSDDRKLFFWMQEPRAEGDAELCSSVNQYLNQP
substance,measurement,value
TTOP UBL domain (from UniProt F4K1H0 1-879) (domain or fragment),pKd,4.54
same,stoichiometry N,1
